Experiments:
[1] = target: cynomolgus TIM-3 ECD Fc fusion (made in-house) (cynomolgus monkey (Macaca fascicularis); human); assay: SPR (IBIS MX96), TIM-3 ECD-Fc captured, Fab injected 1-100 nM, 1:1 fit
[2] = target: cynomolgus TIM-3 Fc fusion antigen (Sino Biologicals) (cynomolgus monkey); assay: ELISA, TIM-3 Fc fusion coated at 1 ug/ml, antibody titrated from 1000 nM
[3] = target: cynomolgus TIM-3 Fc fusion antigen (Sino Biologicals) (cynomolgus monkey); assay: ELISA, EC50 on cynomolgus TIM-3 against EC50 on human TIM-3

cynomolgus TIM-3 Fc fusion antigen (Sino Biologicals) (cynomolgus monkey), sequence (chain, as listed by the source limits assumed): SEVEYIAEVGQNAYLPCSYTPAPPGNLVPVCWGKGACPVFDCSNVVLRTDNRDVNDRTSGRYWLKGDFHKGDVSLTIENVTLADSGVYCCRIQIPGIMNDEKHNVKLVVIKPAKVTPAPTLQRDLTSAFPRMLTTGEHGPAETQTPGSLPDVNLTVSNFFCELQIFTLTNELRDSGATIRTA
cynomolgus TIM-3 ECD Fc fusion (made in-house) (cynomolgus monkey (Macaca fascicularis); human), sequence (chain, as listed by the source limits assumed): as above

| Molecule | Kd [1] | EC50 [2] | Ratio Cynomolgus/Human EC50 [3] |
| --- | --- | --- | --- |
| Fab fragment of 18564 ABTIM3 (reference analogue) | 25 nM | – | – |
| antibody 19416 (antibody, V domains shown) VH: QVQLVESGPGLVKPSQTLSLTCTVSGGSINSGGYYWSWIRQHPGKGLEWIGYIYYSGSIYYNPSLRSRLTISVDTSKNQFSLKLSSVTAADTAVYYCATPYYYGSGSYGDYWGQGTLVTVSS VL: DIQMTQSPATLSLSPGERATLSCRASQSVNNYLAWYQQKPGQAPRLLIYDASNRATGIPARFSGSGSGTDFTLTISSLEPEDFAVYYCQQRSNWPITFGQGTRLEIK | – | 9.42 nM | 47 |
